{"source": "patent US20040063116", "proteins": {"B1": {"name": "plasmepsin II (protein)", "chain": "MDITVREHDFKHGFIKSNSTFDGLNIDNSKNKKKIQKGFQILYVLLFCSVMCGLFYYVYENVWLQRDNEMNEILKNSEHLTIGFKVENAHDRILKTIKTHKLKNYIKESVNFLNSGLTKTNYLGSSNDNIELVDFQNIMFYGDAEVGDNQQPFTFILDTGSANLWVPSVKCTTAGCLTKHLYDSSKSRTYEKDGTKVEMNYVSGTVSGFFSKDLVTVGNLSLPYKFIEVIDTNGFEPTYTASTFDGILGLGWKDLSIGSVDPIVVELKNQNKIENALFTFYLPVHDKHTGFLTIGGIEERFYEGPLTYEKLNHDLYWQITLDAHVGNIMLEKANCIVDSGTSAITVPTDFLNKMLQNLDVIKVPFLPFYVTLCNNSKLPTFEFTSENGKYTLEPEYYLQHIEDVGPGLCMLNIIGLDFPVPTFILGDPFMRKYFTVFDYDNHSVGIALAKKNL"}}, "key": {"[1]": {"target": "T1, RNase A zymogen with 104/105 termini, P61823", "T1 chain": "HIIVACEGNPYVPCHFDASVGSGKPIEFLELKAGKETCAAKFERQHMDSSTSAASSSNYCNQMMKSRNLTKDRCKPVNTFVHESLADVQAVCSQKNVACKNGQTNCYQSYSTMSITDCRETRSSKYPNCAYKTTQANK"}, "[2]": {"target": "T2, RNase A zymogen with 113/114 termini, P61823", "T2 chain": "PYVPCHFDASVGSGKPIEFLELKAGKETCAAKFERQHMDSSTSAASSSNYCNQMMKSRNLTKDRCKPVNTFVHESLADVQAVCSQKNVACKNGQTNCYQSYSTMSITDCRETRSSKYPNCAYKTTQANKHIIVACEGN"}, "[3]": {"target": "RNase A zymogen with 20/21 termini, P61823", "sequence (P61823 whole entry, looked up)": "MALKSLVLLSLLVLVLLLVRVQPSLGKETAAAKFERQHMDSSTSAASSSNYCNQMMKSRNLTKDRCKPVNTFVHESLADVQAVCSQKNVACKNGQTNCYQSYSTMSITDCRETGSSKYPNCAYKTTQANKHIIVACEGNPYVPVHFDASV"}, "[4]": {"target": "T3, RNase A zymogen with 67/71 termini, P61823", "T3 chain": "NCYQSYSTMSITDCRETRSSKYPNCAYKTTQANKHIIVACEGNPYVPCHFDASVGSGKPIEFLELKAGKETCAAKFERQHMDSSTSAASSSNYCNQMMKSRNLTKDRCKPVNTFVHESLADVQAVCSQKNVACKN"}, "[5]": {"target": "T4, RNase A zymogen with 88/89 termini, P61823", "T4 chain": "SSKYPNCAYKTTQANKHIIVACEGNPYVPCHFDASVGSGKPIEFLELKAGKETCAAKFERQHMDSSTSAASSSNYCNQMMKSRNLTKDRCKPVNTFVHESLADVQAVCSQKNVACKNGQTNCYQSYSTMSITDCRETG"}}}
{"protein": "B1", "values": [{"measurement": "proteolytic cleavage of the zymogen (SDS-PAGE) and gain of ribonucleolytic activity", "setting": "[1]", "value": "The proteolytic cleavage by plasmepsin II was complete within 10 minutes at an approximately 1:100 molar ratio of protease to zymogen"}, {"measurement": "proteolytic cleavage of the zymogen (SDS-PAGE) and gain of ribonucleolytic activity", "setting": "[2]", "value": "The proteolytic cleavage by plasmepsin II was complete within 10 minutes at an approximately 1:100 molar ratio of protease to zymogen"}, {"measurement": "proteolytic cleavage of the zymogen (SDS-PAGE) and gain of ribonucleolytic activity", "setting": "[3]", "value": "The proteolytic cleavage by plasmepsin II was complete within 10 minutes at an approximately 1:100 molar ratio of protease to zymogen"}, {"measurement": "proteolytic cleavage of the zymogen (SDS-PAGE) and gain of ribonucleolytic activity", "setting": "[4]", "value": "The proteolytic cleavage by plasmepsin II was complete within 10 minutes at an approximately 1:100 molar ratio of protease to zymogen"}, {"measurement": "proteolytic cleavage of the zymogen (SDS-PAGE) and gain of ribonucleolytic activity", "setting": "[5]", "value": "The proteolytic cleavage by plasmepsin II was complete within 10 minutes at an approximately 1:100 molar ratio of protease to zymogen"}]}
